Where a chain is given by its changes, count along the chain named. Names may count otherwise.
B1: H240-Kn061/H240-Hl071/L73-k0 variant with Y235A in H240-Kn061 (antibody, human IgG1, kappa)
heavy 1: QDQLVQSGAEVKKPGASVKVSCKASGFNIKDTYIQWVRQAPGQGLEWMGRIDPLRKQTKYREKFEGRVTITADTSTNTAYMELSSLRSEDTAVYYCVRSGREFDYWGQGTLVTVSSASTKGPSVFPLAPSSKSTSGGTAALGCLVKDYFPEPVTVSWNSGALTSGVHTFPAVLQSSGLYSLSSVVTVPSSSLGTQTYICNVNHKPSNTKVDKKVEPKSCDKTHTCPPCPAPEYAWGPSVFLFPPKPKDTLMISRTPEVTCVVVDVSDEDPEVKFNWYVDGVEVHNAKTKPREEQYNATYRVVSVLTVLHQDWLNGKEYKCKVSNKALPAPIEKTISKAKGQPREPQVCTLPPSRDELTKNQVSLWCLVKGFYPSDIAVEWESNGQPENNYKTTPPVLDSDGSFFLYSKLTVDKSRWQQGNVFSCSVMHEALHNHYTQKSLSLSP
heavy 2: QDQLVQSGAEVKKPGASVKVSCKASGFNIKDTYIQWVRQAPGQGLEWMGRIDPLRKQTKYREKFEGRVTITADTSTNTAYMELSSLRSEDTAVYYCVRSGREFDYWGQGTLVTVSSASTKGPSVFPLAPSSKSTSGGTAALGCLVKDYFPEPVTVSWNSGALTSGVHTFPAVLQSSGLYSLSSVVTVPSSSLGTQTYICNVNHKPSNTKVDKKVEPKSCDKTHTCPPCPAPELLGGPSVFLFPPKPKDTLMISRTPEVTCVVVDVSHEDPEVKFNWYVDGVEVHNAKTKPREEQYNSTYRVVSVLTVLHQDWLNGKEYKCKVSNDALPMPIEETISKAKGQPREPQVYTLPPSRCELTKNQVSLSCAVKGFYPSDIAVEWESNGQPENNYKTTPPVLDSDGSFFLVSKLTVDKSRWQQGNVFSCSVMHEALHNHYTQKSLSLSP
light: DIQMTQSPSSLSASVGDRVTITCRASQDIHKYIAWYQQKPGQAPRLLIQYTSTLQPGVPSRFSGSGSGTDYTFTISSLQPEDIATYYCLQYEQLRTFGGGTKVEIKRTVAAPSVFIFPPSDEQLKSGTASVVCLLNNFYPREAKVQWKVDNALQSGNSQESVTEQDSKDSTYSLSSTLTLSKADYEKHKVYACEVTHQGLSSPVTKSFNRGEC
notes: anti-epiregulin heterodimerized IgG1; also called H240-Kn061 Y235A
B2: H240-Kn061/H240-Hl071/L73-k0 variant with Y234E in H240-Kn061 (antibody, human IgG1, kappa)
heavy 1: B1 heavy 1 with Y233E, A234Y
heavy 2: B1 heavy 2
light: B1 light
notes: anti-epiregulin heterodimerized IgG1; also called H240-Kn061 Y234E
B3: H240-Kn061/H240-Hl071/L73-k0 variant with Y235I in H240-Kn061 (antibody, human IgG1, kappa)
heavy 1: B1 heavy 1 with A234I
heavy 2: B1 heavy 2
light: B1 light
notes: anti-epiregulin heterodimerized IgG1; also called H240-Kn061 Y235I
B4: H240-Kn061/H240-Hl071/L73-k0 variant with Y235P in H240-Kn061 (antibody, human IgG1, kappa)
heavy 1: B1 heavy 1 with A234P
heavy 2: B1 heavy 2
light: B1 light
notes: anti-epiregulin heterodimerized IgG1; also called H240-Kn061 Y235P
B5: H240-Kn061/H240-Hl071/L73-k0 variant with Y235Q in H240-Kn061 (antibody, human IgG1, kappa)
heavy 1: B1 heavy 1 with A234Q
heavy 2: B1 heavy 2
light: B1 light
notes: anti-epiregulin heterodimerized IgG1; also called H240-Kn061 Y235Q
B6: H240-Kn061/H240-Hl071/L73-k0 variant with Y235V in H240-Kn061 (antibody, human IgG1, kappa)
heavy 1: B1 heavy 1 with A234V
heavy 2: B1 heavy 2
light: B1 light
notes: anti-epiregulin heterodimerized IgG1; also called H240-Kn061 Y235V
B7: GpH7-A5/GpH7-B3 variant S267_08L/GpL16-k0 (antibody, human IgG1, kappa)
heavy 1: not shown
heavy 2: not shown
light: DIVMTQSPLSLPVTPGEPASISCQASESLVHSNRNTYLHWYLQKPGQSPQLLIYKVSNRFSGVPDRFSGSGSGTDFTLKISRVEAEDVGVYYCSQNTHVPPTFGQGTKVEIERTVAAPSVFIFPPSDEQLKSGTASVVCLLNNFYPREAKVQWKVDNALQSGNSQESVTEQDSKDSTYSLSSTLTLSKADYEKHKVYACEVTHQGLSSPVTKSFNRGEC
notes: Heterodimerized antibody (He Ab) with the mutation in only one H chain; also called He Ab S267L
B8: GpH7-A5/GpH7-B3 variant H268_01G/GpL16-k0 (antibody, human IgG1, kappa)
heavy 1: not shown
heavy 2: not shown
light: B7 light
notes: Heterodimerized antibody (He Ab) with the mutation in only one H chain; also called He Ab H268G
B9: GpH7-A5/GpH7-B3 variant H268_02A/GpL16-k0 (antibody, human IgG1, kappa)
heavy 1: not shown
heavy 2: not shown
light: B7 light
notes: Heterodimerized antibody (He Ab) with the mutation in only one H chain; also called He Ab H268A
B10: GpH7-A5/GpH7-B3 variant H268_05P/GpL16-k0 (antibody, human IgG1, kappa)
heavy 1: not shown
heavy 2: not shown
light: B7 light
notes: Heterodimerized antibody (He Ab) with the mutation in only one H chain; also called He Ab H268P
B11: GpH7-A5/GpH7-B3 variant H268_13S/GpL16-k0 (antibody, human IgG1, kappa)
heavy 1: not shown
heavy 2: not shown
light: B7 light
notes: Heterodimerized antibody (He Ab) with the mutation in only one H chain; also called He Ab H268S

molecular target: T1, FcgRIIb (FcγRIIb) extracellular domain with C-terminal His tag (human, UniProt P31994 43-217); test: SPR (Biacore); KD of H240-Kn061/H240-Hl071/L73-k0 divided by KD of the variant
T1 construct: extracellular domain; not shown: His tag attached to the C terminus
T1 sequence (looked up): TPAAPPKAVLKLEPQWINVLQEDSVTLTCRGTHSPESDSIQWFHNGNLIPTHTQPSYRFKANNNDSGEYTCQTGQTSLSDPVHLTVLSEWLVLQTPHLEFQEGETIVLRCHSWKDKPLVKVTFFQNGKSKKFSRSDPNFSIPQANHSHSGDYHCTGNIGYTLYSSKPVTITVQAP
Protocol: (§1) The antibodies were assessed for the binding to each FcgR. […] The resultant value was defined as relative KD, and used as an assessment indicator.
(§2) Analysis of interaction between objective antibody and the FcγR was carried out using Biacore T100 (GE Healthcare), Biacore T200, Biacore A100, and Biacore 4000. HBS-EP+ (GE Healthcare) was used as the running buffer, and the measurement temperature was set to 25° C. Chips produced by immobilizing the antigen peptide by the amine coupling method to a Series S sensor Chip CM5 (GE Healthcare), chips produced by allowing preliminarily biotinylated antigen peptides to interact with and immobilize onto a Series S Sensor Chip SA (certified) (GE Healthcare), chips produced by immobilizing Protein L (ACTIGEN, BioVision) to Series S Sencor Chip CM5 (GE Healthcare), or chips produced by immobilizing Protein A/G (Thermo Scientific) to Series S Sencor Chip CM5 (GE Healthcare) were used. Antibodies of interest were captured onto these chips, and allowed to interact to each FcγR diluted with running buffer.

| Binder | relative KD |
| --- | --- |
| B1 | 0.2 ratio |
| B2 | 0.5 ratio |
| B3 | 0.2 ratio |
| B4 | 0.5 ratio |
| B5 | 0.1 ratio |
| B6 | 0.2 ratio |

molecular target: T2, FcgRIIIa V (FcγRIIIa type V) extracellular domain with C-terminal His tag (human, UniProt P08637 17-208); test: as above
T2 construct: extracellular domain; also called FcγRIIIa V; not shown: His tag attached to the C terminus
Protocol: as §1, §2

T2 sequence (P08637 17-208 F176V limits assumed): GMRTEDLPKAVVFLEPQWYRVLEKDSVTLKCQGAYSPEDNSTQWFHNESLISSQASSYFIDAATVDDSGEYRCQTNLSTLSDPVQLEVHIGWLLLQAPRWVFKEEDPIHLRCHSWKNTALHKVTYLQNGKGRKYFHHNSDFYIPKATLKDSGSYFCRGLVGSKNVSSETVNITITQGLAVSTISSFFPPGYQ

| Binder | relative KD |
| --- | --- |
| B1 | 1.3 ratio |
| B2 | 1.6 ratio |
| B3 | 1.6 ratio |
| B4 | 1.5 ratio |
| B5 | 1.3 ratio |
| B6 | 1.3 ratio |

molecular target: T3, FcgRIIIa F (FcγRIIIa type F) extracellular domain with C-terminal His tag (human, UniProt P08637 17-208); test: as above
T3 construct: extracellular domain; also called FcγRIIIa F; 3aF; not shown: His tag attached to the C terminus
Protocol: as §1, §2

T3 sequence (P08637 17-208): as the sequence (P08637 17-208 F176V limits assumed) above, with V160F counted along it

| Binder | relative KD |
| --- | --- |
| B1 | 1.2 ratio |
| B2 | 1.9 ratio |
| B3 | 1.3 ratio |
| B4 | 1.1 ratio |
| B5 | 1 ratio |
| B6 | 1.2 ratio |

molecular target: T4, FcγRIIIa extracellular domain with C-terminal His tag (human, UniProt P08637 17-208); test: SPR (Biacore); He/Con_3a (FcγRIIIa) divided by He/Con_2b (FcγRIIb)
T4 construct: extracellular domain; also called FcgRIIIa; 3a; not shown: His tag attached to the C terminus
T4 sequence (P08637 17-208): as the sequence (P08637 17-208 F176V limits assumed) above, with V160F counted along it

| Binder | He_3a/2b (IIIa/IIb) |
| --- | --- |
| B7 | 0.18 ratio |
| B8 | 0.67 ratio |
| B9 | 0.73 ratio |
| B10 | 0.66 ratio |
| B11 | 0.76 ratio |

molecular target: T1, FcgRIIb (FcγRIIb) extracellular domain …; test: SPR (Biacore); KD of H240-Kn061/H240-Hl071/L73-k0 divided by KD of the variant; remark: another data set of the same source
Protocol: as §1, §2

| Binder | relative KD |
| --- | --- |
| B1 | 0.2 ratio |
| B2 | 0.5 ratio |
| B3 | 0.2 ratio |
| B4 | 0.5 ratio |
| B5 | 0.1 ratio |
| B6 | 0.2 ratio |

molecular target: T2, FcgRIIIa V (FcγRIIIa type V) …; test: as above; remark: another data set of the same source
Protocol: as §1, §2

| Binder | relative KD |
| --- | --- |
| B1 | 1.3 ratio |
| B2 | 1.6 ratio |
| B3 | 1.6 ratio |
| B4 | 1.5 ratio |
| B5 | 1.3 ratio |
| B6 | 1.3 ratio |

molecular target: T5, FcgRIIa H (FcγRIIa type H) extracellular domain with C-terminal His tag (human, UniProt P12318 34-217); test: as above
T5 construct: extracellular domain; also called FcγRIIa H; not shown: His tag attached to the C terminus
T5 sequence (looked up): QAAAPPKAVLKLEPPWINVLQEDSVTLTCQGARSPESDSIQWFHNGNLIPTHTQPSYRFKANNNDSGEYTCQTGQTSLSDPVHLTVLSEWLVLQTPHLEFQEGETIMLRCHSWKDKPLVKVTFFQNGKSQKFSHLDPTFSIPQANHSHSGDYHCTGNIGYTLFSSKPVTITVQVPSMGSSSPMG
Protocol: as §1, §2

| Binder | relative KD |
| --- | --- |
| B1 | 0.5 ratio |
| B2 | 0.7 ratio |
| B3 | 0.4 ratio |
| B4 | 0.4 ratio |
| B5 | 0.4 ratio |
| B6 | 0.4 ratio |

molecular target: T3, FcgRIIIa F (FcγRIIIa type F) …; test: as above; remark: another data set of the same source
Protocol: as §1, §2

| Binder | relative KD |
| --- | --- |
| B1 | 1.2 ratio |
| B2 | 1.9 ratio |
| B3 | 1.3 ratio |
| B4 | 1.1 ratio |
| B5 | 1 ratio |
| B6 | 1.2 ratio |

molecular target: T6, FcgRIIa R (FcγRIIa type R) extracellular domain with C-terminal His tag (human, UniProt P12318 34-217); test: as above
T6 construct: extracellular domain; also called FcγRIIa R; not shown: His tag attached to the C terminus
T6 sequence (looked up): T5 sequence (looked up) with H134R
Protocol: as §1, §2

| Binder | relative KD |
| --- | --- |
| B1 | 0.5 ratio |
| B2 | 1.4 ratio |
| B3 | 0.7 ratio |
| B4 | 0.6 ratio |
| B5 | 0.8 ratio |
| B6 | 0.5 ratio |

molecular target: T4, FcγRIIIa extracellular domain with …; test: SPR (Biacore T100), antibody captured on antigen peptide chip, FcγR as analyte
Protocol: (§3) Analysis of interaction between objective antibody and the FcγR was carried out using Biacore T100 (GE Healthcare). HBS-EP+ (GE Healthcare) was used as the running buffer, and the measurement temperature was set to 25° C. Chips produced by immobilizing the antigen peptide by the amine coupling method to a Series S Sencor Chip CM5 (GE Healthcare), or alternatively, chips produced by allowing preliminarily biotinylated antigen peptides to interact with and immobilize onto a Series S Sensor Chip SA (certified) (GE Healthcare) were used. Antibodies of interest were captured onto an antigen peptide-immobilized chip, and allowed to interact to each FcγR diluted with running buffer. To regenerate and repeatedly use the chip, the antibodies captured on the chip were washed off by reacting 10 mM glycine-HCl, pH 1.5.

| Binder | He/Con_3a |
| --- | --- |
| B7 | 19.5 relative binding, GpH7-A5/GpH7-B3/GpL16-k0 = 100 |
| B8 | 96.7 relative binding, GpH7-A5/GpH7-B3/GpL16-k0 = 100 |
| B9 | 122 relative binding, GpH7-A5/GpH7-B3/GpL16-k0 = 100 |
| B10 | 76.4 relative binding, GpH7-A5/GpH7-B3/GpL16-k0 = 100 |
| B11 | 122 relative binding, GpH7-A5/GpH7-B3/GpL16-k0 = 100 |

molecular target: T7, FcγRIIb extracellular domain with C-terminal His tag (human, UniProt P31994 43-217); test: as above
T7 construct: extracellular domain; Soluble receptor expressed in FreeStyle293 cells, used as analyte in Biacore; also called FcgRIIb; 2b; not shown: His tag attached to the C terminus
T7 sequence (looked up): T1 sequence (looked up)
Protocol: as §3

| Binder | He/Con_2b |
| --- | --- |
| B7 | 109 relative binding, GpH7-A5/GpH7-B3/GpL16-k0 = 100 |
| B8 | 144 relative binding, GpH7-A5/GpH7-B3/GpL16-k0 = 100 |
| B9 | 167 relative binding, GpH7-A5/GpH7-B3/GpL16-k0 = 100 |
| B10 | 116 relative binding, GpH7-A5/GpH7-B3/GpL16-k0 = 100 |
| B11 | 160 relative binding, GpH7-A5/GpH7-B3/GpL16-k0 = 100 |
